The source of these data is the supplement of paper PMC12042874.

± gives the uncertainty stated by the source.

This data set is described as follows: amyloid nucleation score (Sup35N fusion, yeast selection) (log enrichment); library NNK3; higher = more nucleation; inactive = no reads after selection. The gist of the method: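 Nucleation score: DiMSum log enrichment of output over input reads, centred on the mode score of non-aggregating sequences. Only sequences with at least 100 input reads were kept. Reads came from Illumina sequencing of plasmid inserts before and after 7 days of growth at 30°C without adenine and uracil, in psi-negative yeast expressing Sup35N fused to peptides of 20 random codons after 24 hours of induction with 100 μM copper sulfate.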
As for FHMIECGVYAKHLGHCTRYI, the amyloid nucleation score was -0.079 ± 0.33.
As for FHNVGLI, the amyloid nucleation score turned out to be 1.77 ± 0.093.
The value for FHPFMCSYGSGWDGRLVHCG was “inactive”.
Take FHTFSLTSINMVLLSFVVRF: the amyloid nucleation score entry was “inactive”.
As for FHTLLLCSDVSSARWFADWF, the amyloid nucleation score entry was “inactive”.
Turning to FHTWISGLPEVHWGVLEVRW, the amyloid nucleation score entry is “inactive”.
The value for FHYGLSWLSSTKGSYVFYIG was “inactive”.
With FIALIYVIIPDIEGSVYVSN, the amyloid nucleation score entry was “inactive”.
In the case of FIGGVVTVTVYNNTVESGLK, the amyloid nucleation score stood at 1.65 ± 0.13.
FIGVCNLVWMELPLDAMRFF registered an amyloid nucleation score of 1.36 ± 0.11.
The substance FIILKYGLYM registered an amyloid nucleation score of 0.507 ± 0.14.
As for FIKHVRIKFTWSVSREF, the amyloid nucleation score result was “inactive”.
On to FIQWQSESVYIAYSNFTSSM, for which the amyloid nucleation score entry was “inactive”.
Consider FIRGVSYDFIDRSIILFLEV, for which the amyloid nucleation score result is “inactive”.
In turn, FIRLFEYMRGLPLLVKNDSV gave an amyloid nucleation score of 0.234 ± 0.72.
FIRLYDKIRWYNDGNWVWHV: the amyloid nucleation score result is “inactive”.
On to FIRMVGRLKKWRVS, for which the amyloid nucleation score result is “inactive”.
In the case of FIRTGELLFLVEWPLVCYTK, the amyloid nucleation score result was “inactive”.
The value for FISRSGAVGRRS was “inactive”; that for FIVVDMDSYRAVDGARVFVE was “inactive”.
The value for FIVYLSCPWVRRFIVVMEFM was “inactive”.
In the case of FIYDEQSSDSVV it was “inactive”; in that of FKAPWLSGP, “inactive”.
In the case of FKDCED, the amyloid nucleation score is -0.328 ± 0.6.
In turn, FKGLVVMKGLLNMIGGGACH displayed an amyloid nucleation score of 0.27 ± 0.4.
As for FKMPTIRLVLK, the amyloid nucleation score result is “inactive”.
As to FKSAFWLIM, the amyloid nucleation score entry was “inactive”.
Take FKYLWADREVNVGQKHSVIG: the amyloid nucleation score is -0.174 ± 0.7.
Consider FLACSDVVYSDN, for which the amyloid nucleation score result is “inactive”.
For FLAGDWSKGFNKYYTYYISK, the amyloid nucleation score result was “inactive”.
On to FLCMSLATRMLTFRLFPTNL, for which the amyloid nucleation score result is “inactive”.
The value for FLDPYSHRLSAKALYM was “inactive”; that for FLDVALLKSMNCSASREVGV was “inactive”.
The value for FLGAVRLYSPAHTY was “inactive”; that for FLIDNCYWYPHCAPIVAPWL was “inactive”.
FLIWGKQPWTRKLLGTIVPV: the amyloid nucleation score result is “inactive”.
Take FLLGPSLTPNSMG: the amyloid nucleation score entry was “inactive”.
In the case of FLLMC it was “inactive”.
In the case of FLLMLFVSGVRLFDYRRFWH, the amyloid nucleation score entry is “inactive”.
As for FLLVMYT, the amyloid nucleation score is 0.167 ± 0.25.
FLLVNLTVITRACEKLPMRP registered an amyloid nucleation score of -0.277 ± 1.1.
With FLMDNMVSGIVFFTSSVIRG, the amyloid nucleation score result was “inactive”.
In the case of FLNLHTVCC it was “inactive”; in that of FLNRSTAIWKYRLIAQRVGD, “inactive”; in that of FLPWDFKASKKEPYSKYMNL, “inactive”.
Turning to FLRLCLVVRLRCVVISMGNY, the amyloid nucleation score result was “inactive”.
The value for FLRNIFDGRTWTFKDSNMSH was “inactive”; that for FLRSSVCA was “inactive”.
Consider FLSFSFYLVYRRKSVRFQ, for which the amyloid nucleation score result is “inactive”.
For the substance FLSYTPRATGYHFFRLSIFC, the amyloid nucleation score entry is “inactive”.
Regarding FLTFRPSLSTRHLFLMESHT, the amyloid nucleation score entry was “inactive”.
Consider FLTLSSFHRPMVE, for which the amyloid nucleation score result was “inactive”.
For FLVWDFRSERKRKKI, the amyloid nucleation score entry was “inactive”.
The value for FLVYLRR was 1.17 ± 0.11; that for FLWVAANLDFVYDEREHIRG was “inactive”.
Consider FLYAFLPWRCVKNFFCSKVL, for which the amyloid nucleation score result is “inactive”.
As to FLYYLLMLVRVRCFEQVVIV, the amyloid nucleation score result was “inactive”.
Consider FMEHLLYE, for which the amyloid nucleation score entry was “inactive”.
With FMIFDWVTYIKVTVKCWW, the amyloid nucleation score result was “inactive”.
As to FMLCLMATLRKGLDANLWVT, the amyloid nucleation score result was “inactive”.
Consider FMPANAFWTKFCSARNRLYI, for which the amyloid nucleation score was -0.135 ± 0.57.
The value for FMRDD was “inactive”; that for FMRGTVLKTRNYRFRQAHEE was “inactive”; that for FMTFPRASADRDFFSRVLHL was “inactive”.
As to FMTIIKRWDVWNFCRSSGAV, the amyloid nucleation score entry was “inactive”.
For FMVWYREMDLVLVAQREEYK, the amyloid nucleation score entry is “inactive”.
The value for FMYRTDRYHVRGVITWRLSM was “inactive”; that for FMYSGAVSDVRLNSSGDSLG was -0.516 ± 0.96.
Consider FNARLFISLLIKDRK, for which the amyloid nucleation score entry is “inactive”.
On to FNATCVVGHQVSVCNPWDAH, for which the amyloid nucleation score entry was “inactive”.
Take FNFLVWAQ: the amyloid nucleation score entry is “inactive”.
The value for FNGICRWTCYSCS was 2.09 ± 0.08; that for FNGMACVFRISFVALRLQGG was -0.892 ± 1.7; that for FNISIRVDIVISICNNVVFN was 0.596 ± 0.19.
FNKLEVRNRQEWLSGRFWDH returned an amyloid nucleation score of -0.091 ± 0.36.
For FNKVRWSRVTGTFWKVLIRV, the amyloid nucleation score result is “inactive”.
The value for FNMFVKNN was “inactive”; that for FNNFSYCHTDARVWVMATVM was “inactive”; that for FNSYKGNVSFAGW was -0.155 ± 1.4.
For the substance FNTRQSNLKDDMVSFHDSDL, the amyloid nucleation score result was “inactive”.
On to FPFLSSSSDSSEMFILKLFD, for which the amyloid nucleation score entry was “inactive”.
FPICWLRVVDLALFKWMYNF: the amyloid nucleation score result was “inactive”.
In the case of FPIWLLDCKEDCVLSDVAAS it was “inactive”; in that of FPRVTVPLVFSSIQESTSSE, “inactive”.
The value for FPSIFCPCFLTIYMFGWIVS was “inactive”; that for FPVARAIATMGWHIGALFLN was “inactive”; that for FPWYAIFSHSMLCVDIQDF was 0.958 ± 0.2.
In the case of FPYSKIRCLCDGRNDRLGGL, the amyloid nucleation score was -0.043 ± 0.67.
Take FQIKT: the amyloid nucleation score turned out to be 0.041 ± 0.81.
The value for FQKQLASRCTSWSWTRWLVQ was “inactive”; that for FQSHLNIVIVYIRLNYTVLL was -0.394 ± 0.63.
In the case of FRCFYGTRSWRKECGESAFL it was “inactive”; in that of FRDVPGLLCR, “inactive”.
The value for FRGFIAVDAVGMVTNYIIKY was 1.89 ± 0.062.
For FRIIQVVRYDMMGTRLDMYQ, the amyloid nucleation score is 0.938 ± 0.19.
In turn, FRLRYRYFCRGRGCMDDLEY registered an amyloid nucleation score of -0.288 ± 0.8.
As to FRLYFYYYSNLFRHFCYNKS, the amyloid nucleation score entry is “inactive”.
